Ends that are not written are not given here.
B1: Asyn Med peptide (GKNEEGAPQEGI) of alpha‐synuclein, carboxyfluorescein-labeled (peptide)
peptide: GKNEEGAPQEGI
modifications: also: 5(6)-carboxyfluorescein label, site not given here
B2: Asyn top peptide (YEMPSEEGYQDY) of alpha‐synuclein, carboxyfluorescein-labeled (peptide)
peptide: YEMPSEEGYQDY
modifications: also: 5(6)-carboxyfluorescein label, site not given here
B3: Asyn worst peptide (MDVFMKGLSKAK) of alpha‐synuclein, carboxyfluorescein-labeled (peptide)
peptide: MDVFMKGLSKAK
modifications: also: 5(6)-carboxyfluorescein label, site not given here

Tests used:
Experiment in all cases: MST
[1] = biological target: amyloid beta peptide (strongest wild‐type SERF2 binding peptide from amyloid beta), carboxyfluorescein-labeled (human)
[2] = biological target: T1, wild‐type SERF2 (human, UniProt P84101-1 1-59)
T1 sequence: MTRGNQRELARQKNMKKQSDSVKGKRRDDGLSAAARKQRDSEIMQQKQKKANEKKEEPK

[3] = biological target: B1
[4] = biological target: B3
[5] = biological target: B2

| Binder | Kd [1] | binding result [2] | also measured |
| --- | --- | --- | --- |
| wild‐type SERF2 (natural protein) MTRGNQRELARQKNMKKQSDSVKGKRRDDGLSAAARKQRDSEIMQQKQKKANEKKEEPK | 9.6 µM | – | – |
| B1 | – | binds | – |
| B2 | – | – | Kd [2]: 3 µM |
| SERF2 KR mutant (natural protein) MTRGNQRELARQKNMRRQSDSVRGKRRDDGLSAAARKQRDSEIMQQKQKKANEKKEEPK | 6.6 µM | – | binding result [3]: binds; binding result [4]: binds; Kd [5]: 2.6 µM |
| B3 | – | binds | – |

Source: paper PMC8561633 (The EMBO Journal, 2021)
